Assay results as given in patent publication US20160346402A1 (Bayer, published 2016).

What was measured:
[1] = biological target: T1, TPP-2203, TWEAKR-ECD-34-68-hIgGFc-His (human); assay: ELISA: TPP-2203 (TWEAKR 34-68-Fc) coated at 1 µg/ml; biotinylated IgG at 0.08 µg/ml (open bars) and 0.3 µg/ml (solid bars); streptavidin-HRP, Amplex Red; Y = signal [Rfu]
T1 construct: also called TWEAKR (34-68)-Fc fusion protein; N- and C-terminally truncated ectodomain
Method: FIG. 4: Interaction of the cysteine-rich domain of TWEAKR with antibodies according to the invention and reference antibodies. What is shown is the result of an ELISA with TWEAKR (34-68)-Fc fusion protein coating (TPP-2203, 1 μg/ml) and 0.08 μg/ml (open bars) and 0.3 μ/ml (solid bars) of biotinylated IgG as soluble binding partner. Detection was carried out using streptavidin-HRP and Amplex Red substrate.
(§1) Detection was carried out using streptavidin-HRP and Amplex Red substrate. IgGs were biotinylated using an about 2-fold molar excess of biotin-LC-NHS (Pierce; Cat. No. 21347) according to the instructions of the manufacturer and desalted using Zeba desalting columns (Pierce; Cat. No. 89889).

[2] = biological target: T2, TPP-2202, TWEAKR-ECD-28-80-hIgGFc-His (human); assay: ELISA: TPP-2202 (TWEAKR 28-80-Fc) coated at 1 µg/ml; biotinylated IgG at 0.08 µg/ml (open bars) and 0.3 µg/ml (solid bars; legend of FIG. 3 prints 0.03); streptavidin-HRP, Amplex Red; Y = signal [Rfu]
T2 construct: also called TWEAKR-Fc fusion protein; full-length ectodomain Fc fusion
Method: FIG. 3: Interaction of the TWEAKR ectodomain with antibodies and reference antibodies. […] Detection was carried out using streptavidin-HRP and Amplex Red substrate.
as §1

[3] = biological target: T3, hTNFRSF12 amino acids a28-80-H60K-hIgG1-Fc (human); assay: ELISA: TWEAKR-Fc construct coated at 62 ng/ml, biotinylated IgG titrated from 100 nM; token + marks IC50 of 1 to […] pM
T3 construct: TWEAKR-Fc mutein, coated on the ELISA plate; also called TPP-1989
Method: (§2) To obtain dose-reaction data, the different TWEAKR-Fc muteins were coated at a low concentration (62 ng/ml) onto a 384-well Maxisorb ELISA plate, and a serial 2-fold dilution of biotinylated IgG beginning with a concentration of 100 nM was used as a soluble binding partner. Detection was carried out using streptavidin-HRP and Amplex Red.
(§3) IgGs were biotinylated using an about 2-fold molar excess of biotin-LC-NHS (Pierce; Cat. No. 21347) according to the instructions of the manufacturer and desalted using Zeba desalting columns (Pierce; Cat. No. 89889).

[4] = biological target: T4, hTNFRSF12 amino acids a28-80-hIgG1-Fc (human); assay: as above
T4 construct: wild-type TWEAKR-Fc (dimeric Fc fusion), coated on the ELISA plate; also called TPP-599; HUMAN-TNFRSF12Aaa28-80-hIgG1-Fc
Method: as §2, §3

[5] = biological target: T5, hTNFRSF12 amino acids a28-80-L65Q-hIgG1-Fc (human); assay: as above
T5 construct: TWEAKR-Fc mutein, coated on the ELISA plate
Method: as §2, §3

[6] = biological target: T6, hTNFRSF12 amino acids a28-80-T33Q-hIgG1-Fc (human); assay: as above
T6 construct: TWEAKR-Fc mutein, coated on the ELISA plate; also called TPP-1986
Method: as §2, §3

[7] = biological target: T7, hTNFRSF12 amino acids a28-80-M50A-hIgG1-Fc (human); assay: as above
T7 construct: TWEAKR-Fc mutein, coated on the ELISA plate; also called TPP-1988
Method: as §2, §3

[8] = biological target: T8, hTNFRSF12 amino acids a28-80-S40R-hIgG1-Fc (human); assay: as above
T8 construct: TWEAKR-Fc mutein, coated on the ELISA plate; also called TPP-1987
Method: as §2, §3

[9] = biological target: T9, hTNFRSF12 amino acids a28-80-R56P-hIgG1-Fc (human); assay: as above
T9 construct: TWEAKR-Fc mutein, coated on the ELISA plate; also called TPP-2683
Method: as §2, §3

[10] = biological target: T10, TPP-2614, TweakR-ECD-34-68-hIgGFc-His-D47A (human); assay: ELISA: IgG coated at 1 µg/ml; 8-fold diluted HEK293 supernatant with the TWEAKR(34-68)-Fc-His mutein added; anti-HIS-HRP, Amplex Red; signal [Rfu]
T10 construct: also called D47A mutein
Method: These TWEAKR(34-68) Fc muteins were expressed in HEK293 cells. To obtain dose-reaction data, IgGs were coated at a concentration of 1 μg/ml onto a 384-well Maxisorp ELISA plate, and a serial 2-fold dilution of the supernatant comprising the TWEAKR mutein was used as soluble binding partner. Detection was carried out using anti-HIS-HRP and Amplex Red.

[11] = biological target: T11, TPP-1984, hTNFRSF12 amino acids 28-68-CT-His (human); assay: ELISA: TPP-1984 (TWEAKR 28-68-HIS) coated at 1 µg/ml; biotinylated IgG at 0.08 µg/ml (open bars) and 0.3 µg/ml (solid bars); streptavidin-HRP, Amplex Red; Y = signal [Rfu]
T11 construct: Monomeric ectodomain with C-terminal deletion of amino acids 69 to 80; also called TTP-1984; TWEAKR (28-68)-HIS
T11 chain: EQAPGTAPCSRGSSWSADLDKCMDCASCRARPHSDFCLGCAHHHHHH
Method: FIG. 5: Interaction of TWEAKR (28-68) with antibodies according to the invention and reference antibodies. What is shown is the result of an ELISA with TWEAKR (28-68)-HIS coating (TTP-1984, 1 μg/ml) and 0.08 μg/ml (open bars) and 0.3 μ/ml (solid bars) of biotinylated IgG as soluble binding partner. Detection was carried out using streptavidin-HRP and Amplex Red substrate.
as §1

Measured: binding result

B1: P3G5(TPP-2195) (antibody, mouse IgG2a, kappa, V domains shown)
VH: QVQLQQSGPEVVRPGVSVKISCKGSGYTFTDYGIHWVKQSHAKSLEWIGVISTYNGYTNYNQKFKGKATMTVDKSSSTAYMELARLTSEDSAIYYCARAYYGNLYYAMDYWGQGTSVTVSS
VL: DIVLTQSPASLAVSLGQRATISCRANKSVSTSSYSYMHWYQQKPGQPPKLLIKYASNLESGVPARFSGSGSGTDFILNIHPVEEEDAATYYCQHSRELPFTFGSGTKLEIKR
notes: Comparative antibody; murine IgG2a
binds: [1] | [2]

B2: P4A8(TPP-1324) (antibody, human IgG1, kappa, V domains shown)
VH: QVQLVQSGAEVKKPGASVKVSCKGSGYTFTDYGMHWVRQAPGQGLEWMGVISTYNGYTNYNQKFKGRVTMTVDKSTSTAYMELRSLRSDDTAVYYCARAYYGNLYYAMDYWGQGTLVTVSS
VL: DIVLTQSPASLAVSLGQRATISCRASKSVSTSSYSYMHWYQQKPGQPPKLLIKYASNLESGVPARFSGSGSGTDFSLNIHPMEEDDTAMYFCQHSRELPFTFGGGTKLEIKR
notes: human IgG1; variable domains from WO2009/140177 with a human IgG1 constant region added; biotinylated IgG in the ELISA
binds: [3] | [4] | [5] | [6] | [7] | [8]

B3: P3G5(TPP-2195) (antibody, mouse IgG2a, kappa, V domains shown)
VH: QVQLQQSGPEVVRPGVSVKISCKGSGYTFTDYGIHWVKQSHAKSLEWIGVISTYNGYTNYNQKFKGKATMTVDKSSSTAYMELARLTSEDSAIYYCARAYYGNLYYAMDYWGQGTSVTVSS
VL: DIVLTQSPASLAVSLGQRATISCRANKSVSTSSYSYMHWYQQKPGQPPKLLIKYASNLESGVPARFSGSGSGTDFILNIHPVEEEDAATYYCQHSRELPFTFGSGTKLEIKR
notes: murine IgG2a; variable domains from WO2009/140177 with a murine IgG2 constant region added; biotinylated IgG in the ELISA
not listed: [1] | [2] | [10] | [11]
binds: all other assays above

B4: PDL-192(TPP-1104) (antibody, human IgG1, kappa, V domains shown)
VH: QVELVESGGGLVQPGGSLRLSCAASGFTFSSYWMSWVRQAPGKGLEWVAEIRLKSDNYATHYAESVKGRFTISRDDSKNSLYLQMNSLRAEDTAVYYCTGYYADAMDYWGQGTLVTVSS
VL: DIQMTQSPSSLSASVGDRVTITCRASQSVSTSSYSYMHWYQQKPGKAPKLLIKYASNLESGVPSRFSGSGSGTDFTLTISSLQPEDFATYYCQHSWEIPYTFGGGTKVEIKR
notes: Comparative antibody; variable domains from WO2009/020933 with human IgG1 constant region added
binds: [10]

B5: TPP-2090 (antibody, human IgG1, kappa, V domains shown)
VH: EVQLLESGGGLVQPGGSLRLSCAASGFTFSPYPMIWVRQAPGKGLEWVSYISPSGGSTHYADSVKGRFTISRDNSKNTLYLQMNSLRAEDTAVYYCARGGDTYFDYFDYWGQGTLVTVSS
VL: DIQMTQSPSSLSASVGDRVTITCRASQSISGYLNWYQQKPGKAPKLLIYQASSLQSGVPSRFSGSGSGTDFTLTISSLQPEDFATYYCQQSYTSPFITFGQGTKVEIKR
notes: Human IgG1; biotinylated (biotin-LC-NHS) when used as soluble partner in the ELISAs; also called anti-TWEAKR AK-1
binds: [11] | [1] | [2]

B6: TPP-2084 (antibody, V domains shown)
VH: EVQLLESGGGLVQPGGSLRLSCAASGFTFSPYPMMWVRQAPGKGLEWVSYISPSGGSTHYADSVKGRFTISRDNSKNTLYLQMNSLRAEDTAVYYCARGGDTYFDYFDYWGQGTLVTVSS
VL: not shown
notes: human IgG1
not listed: [1] | [2] | [10] | [11]
binds: all other assays above

B7: TPP-2090 (antibody, V domains shown)
VH: EVQLLESGGGLVQPGGSLRLSCAASGFTFSPYPMIWVRQAPGKGLEWVSYISPSGGSTHYADSVKGRFTISRDNSKNTLYLQMNSLRAEDTAVYYCARGGDTYFDYFDYWGQGTLVTVSS
VL: DIQMTQSPSSLSASVGDRVTITCRASQSISGYLNWYQQKPGKAPKLLIYQASSLQSGVPSRFSGSGSGTDFTLTISSLQPEDFATYYCQQSYTSPFITFGQGTKVEIKR
notes: human IgG1; also called anti-TWEAKR AK-1
not listed: [1] | [2] | [10] | [11]
binds: all other assays above

B8: TPP-2084 (antibody, human IgG1, kappa, V domains shown)
VH: EVQLLESGGGLVQPGGSLRLSCAASGFTFSPYPMMWVRQAPGKGLEWVSYISPSGGSTHYADSVKGRFTISRDNSKNTLYLQMNSLRAEDTAVYYCARGGDTYFDYFDYWGQGTLVTVSS
VL: not shown
notes: Human IgG1; biotinylated when used as soluble partner in the ELISAs
binds: [11] | [1] | [2]

B9: 136.1(TPP-2194) (antibody, mouse IgG2a, kappa, V domains shown)
VH: EVKLEESGGGLVQPGGSMKLSCVASGFTFNNYWMSWVRQSPEKGLEWLAEIRLKSDNYATHYAESVKGKFTISRDDSKSRLYLQMNNLRAENTGIYYCTGGFADYFDYWGQGTTLTVSS
VL: DIVLTQSPASLTVSLGQRATISCRASQSVSTSSYSYMQWYQQRPGQPPKLLIKYATNLDSGVPARFSGSGSGTDFTLNIHPVEEEDAATYYCQHSWEIPYTFGGGTKLEIKR
notes: as for B1
binds: [11] | [1] | [2]
